T1: rHuman Erythropoietin R/Fc Chimera, CF (R&D Systems Cat#963-ER) (human, UniProt P19235 25-250)
T1 construct: Bought reagent; also called EPO R/Fc; Epo R; Fc part of the bought chimera not given
T1 sequence: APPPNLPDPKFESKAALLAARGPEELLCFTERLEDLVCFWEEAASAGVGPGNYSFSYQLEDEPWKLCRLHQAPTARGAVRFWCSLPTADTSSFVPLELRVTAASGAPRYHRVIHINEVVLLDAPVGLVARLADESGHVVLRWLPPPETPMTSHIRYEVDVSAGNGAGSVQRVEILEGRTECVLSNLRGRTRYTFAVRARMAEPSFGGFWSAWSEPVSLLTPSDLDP

T2: rHuman Erythropoietin R/Fc Chimera, CF (R&D Systems Cat#963-ER) (human, UniProt P19235 25-250)
T2 construct: Bought Fc chimera; also called EPO R/Fc; Epo R; not shown: Fc of the bought chimera
T2 sequence: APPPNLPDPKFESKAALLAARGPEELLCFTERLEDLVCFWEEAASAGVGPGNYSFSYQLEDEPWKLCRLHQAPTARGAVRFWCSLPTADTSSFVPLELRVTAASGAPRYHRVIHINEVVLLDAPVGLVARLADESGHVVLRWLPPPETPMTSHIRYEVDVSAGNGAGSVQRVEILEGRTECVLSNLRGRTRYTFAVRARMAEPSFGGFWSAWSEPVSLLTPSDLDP


What was measured:
[1] = biological target: T3, rHuman P-Cadherin/Fc Chimera, CF (R&D Systems Cat#861-PC) (human, UniProt P22223 108-654); experiment: ECL (MSD multi-spot), antigen spotted on plate; Fab 176.3 nM; blank spot 346
T3 construct: Bought reagent; also called CDH3; Fc part of the bought chimera not given

[2] = biological target: T4, rHuman EGF R/Fc Chimera, CF (R&D Systems Cat#344-ER) (human, UniProt P00533 25-645); experiment: as above
T4 construct: Bought reagent; also called epidermal growth factor receptor; Fc part of the bought chimera not given

[3] = biological target: T5, rHuman CD44/Fc Chimera, CF (R&D Systems Cat#3660-CD) (human, UniProt P16070 21-220); experiment: as above
T5 construct: Bought reagent; Fc part of the bought chimera not given

[4] = biological target: T6, rHuman IGF-1 sR (IGF-1 sR), CF (R&D Systems Cat#391-GR) (human, UniProt P08069 31-932); experiment: as above
T6 construct: Bought soluble receptor; also called insulin-like growth factor-1 soluble receptor; IGF-R1

[5] = biological target: T7, Recombinant Human DLL4 (R&D Systems Cat#1506-D4/CF) (human, UniProt Q9NR61 27-524); experiment: as above
T7 construct: Bought reagent; also called delta-like protein 4

[6] = biological target: T1, rHuman Erythropoietin R/Fc Chimera, CF …; experiment: as above
[7] = biological target: T8, rHuman Notch-1/Fc Chimera, CF (R&D Systems Cat#3647-TK) (human, UniProt P46531 19-526); experiment: as above
T8 construct: Bought reagent; Fc part of the bought chimera not given

[8] = biological target: T9, rHuman ErbB2/Fc Chimera, CF (R&D Systems Cat#1129-ER) (human, UniProt P04626 23-652); experiment: as above
T9 construct: Bought reagent; also called HER2/neu; human epidermal growth factor 2 receptor; Fc part of the bought chimera not given

[9] = biological target: T10, rHuman HGF R/c-MET/Fc Chimera, CF (R&D Systems Cat#358-MT/CF) (human, UniProt P08581 25-932); experiment: as above
T10 construct: Bought reagent; also called HGF R/Fc; hepatocyte growth factor receptor; Fc part of the bought chimera not given

[10] = biological target: T3, rHuman P-Cadherin/Fc Chimera, CF (R&D …); experiment: ECL (MSD multi-spot), antigen spotted on plate; Fab 705 nM; blank spot 483
[11] = biological target: T4, rHuman EGF R/Fc Chimera, CF (R&D …); experiment: as above
[12] = biological target: T5, rHuman CD44/Fc Chimera, CF (R&D Systems …); experiment: as above
[13] = biological target: T6, rHuman IGF-1 sR (IGF-1 sR), CF (R&D …); experiment: as above
[14] = biological target: T7, Recombinant Human DLL4 (R&D Systems …); experiment: as above
[15] = biological target: T1, rHuman Erythropoietin R/Fc Chimera, CF …; experiment: as above
[16] = biological target: T8, rHuman Notch-1/Fc Chimera, CF (R&D …); experiment: as above
[17] = biological target: T9, rHuman ErbB2/Fc Chimera, CF (R&D …); experiment: as above
[18] = biological target: T10, rHuman HGF R/c-MET/Fc Chimera, CF (R&D …); experiment: as above
[19] = biological target: T2, rHuman Erythropoietin R/Fc Chimera, CF …; experiment: ECL (MSD multi-spot), antigen on plate, Fab 50 nM
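Note: blank spot per well as comparator with Hit at signal to blank ratio of 4 or more.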

ECL signal [1] | ECL signal [2] | ECL signal [3] | ECL signal [4] | ECL signal [5] | ECL signal [6] | ECL signal [7] | ECL signal [8] | ECL signal [9] | ECL signal [10] | ECL signal [11] | ECL signal [12] | ECL signal [13] | ECL signal [14] | ECL signal [15] | ECL signal [16] | ECL signal [17] | ECL signal [18] | ECL signal [19] [ECL signal] | Binder
532 | 428 | 376 | 393 | 460 | 3520 | 664 | 448 | 418 | 827 | 692 | 693 | 630 | 981 | 4890 | 958 | 671 | 839 | – | Fab VH1-46_IGHD3-10*01_IGHJ4*01 & B3_IGKJ1*01 (Fab, V domains shown, also called IGHV1-46*01) VH: QVQLVQSGAEVKKPGASVKVSCKASGYTFTSYYMHWVRQAPGQGLEWMGIINPSGGSTSYAQKFQGRVTMTRDTSTSTVYMELSSLRSEDTAVYYCAREYYYGSGSYYNDYFDYWGQGTLVTVSS VL: not shown
– | – | – | – | – | – | – | – | – | – | – | – | – | – | – | – | – | – | 574 | Fab VH1-46_IGHD6-6*01_IGHJ1*01_S102A_S103P_S104F & L6_IGKJ1*01_S31K (Fab, V domains shown, Fab) VH: QVQLVQSGAEVKKPGASVKVSCKASGYTFTSYYMHWVRQAPGQGLEWMGIINPSGGSTSYAQKFQGRVTMTRDTSTSTVYMELSSLRSEDTAVYYCAREEYAPFSAEYFQHWGQGTLVTVSS VL: EIVLTQSPATLSLSPGERATLSCRASQSVSKYLAWYQQKPGQAPRLLIYDASNRATGIPARFSGSGSGTDFTLTISSLEPEDFAVYYCQQRSNWPPWTFGQGTKVEIKR
